To fix the notation:
B1: mouse coagulation factor X (natural protein, UniProt O88947 41-481, looked up)
chain: ANSFFEEFKKGNLERECMEEICSYEEVREIFEDDEKTKEYWTKYKDGDQCESSPCQNQGACRDGIGGYTCTCSEGFEGKNCELFVRKLCRLDNGDCDQFCREEQNSVVCSCASGYFLGNDGKSCISTAPFPCGKITTGRRKRSVALNTSDSELDLEDALLDEDFLSPTENPIELLNLNETQPERSSDDLVRIVGGRECKDGECPWQALLINEDNEGFCGGTILNEFYILTAAHCLHQARRFKVRVGDRNTEKEEGNEMVHEVDVVIKHNKFQRDTYDYDIAVLRLKTPITFRMNVAPACLPQKDWAESTLMTQKTGIVSGFGRTHEKGRQSNILKMLEVPYVDRNTCKLSTSFSITQNMFCAGYEAKLEDACQGDSGGPHVTRFKNTYYVTGIVSWGEGCARKGKYGIYTKVTTFLKWIDRSMKARVGPTAETPRTAGPPN
modifications: γ-carboxylated glutamate residues in the Gla domain (positions not given)
notes: coagulation factor X, mouse, plasma-derived; also called Mouse FX; source: bought: Haematologic Technologies, Inc. (MCX-5050), plasma-derived; pretreated with GGACK, dialyzed
B2: bovine coagulation factor X (natural protein, UniProt P00743 41-492, looked up)
chain: ANSFLEEVKQGNLERECLEEACSLEEAREVFEDAEQTDEFWSKYKDGDQCEGHPCLNQGHCKDGIGDYTCTCAEGFEGKNCEFSTREICSLDNGGCDQFCREERSEVRCSCAHGYVLGDDSKSCVSTERFPCGKFTQGRSRRWAIHTSEDALDASELEHYDPADLSPTESSLDLLGLNRTEPSAGEDGSQVVRIVGGRDCAEGECPWQALLVNEENEGFCGGTILNEFYVLTAAHCLHQAKRFTVRVGDRNTEQEEGNEMAHEVEMTVKHSRFVKETYDFDIAVLRLKTPIRFRRNVAPACLPEKDWAEATLMTQKTGIVSGFGRTHEKGRLSSTLKMLEVPYVDRSTCKLSSSFTITPNMFCAGYDTQPEDACQGDSGGPHVTRFKDTYFVTGIVSWGEGCARKGKFGVYTKVSNFLKWIDKIMKARAGAAGSRGHSEAPATWTVPPPLPL
modifications: γ-carboxylated glutamate residues in the Gla domain (positions not given)
notes: coagulation factor X, bovine, plasma-derived; also called Bovine FX; source: bought: Haematologic Technologies, Inc. (BCX-1050), plasma-derived; pretreated with GGACK, dialyzed
B3: mouse prothrombin (coagulation factor II) (natural protein)
chain: not shown
modifications: γ-carboxylated glutamate residues in the Gla domain (positions not given)
notes: prothrombin (FII), mouse, plasma-derived; also called Mouse FII; source: dialyzed
B4: hexon of Ad5.6 (Ad5 vector, hexon HVR7 VIRTDTL), on the virion (natural protein, human adenovirus type 5)
chain: ATPSMMPQWSYMHISGQDASEYLSPGLVQFARATETYFSLNNKFRNPTVAPTHDVTTDRSQRLTLRFIPVDREDTAYSYKARFTLAVGDNRVLDMASTYFDIRGVLDRGPTFKPYSGTAYNALAPKGAPNPCEWDEAATALEINLEEEDDDNEDEVDEQAEQQKTHVFGQAPYSGINITKEGIQIGVEGQTPKYADKTFQPEPQIGESQWYETEINHAAGRVLKKTTPMKPCYGSYAKPTNENGGQGILVKQQNGKLESQVEMQFFSTTEATAGNGDNLTPKVVLYSEDVDIETPDTHISYMPTIKEGNSRELMGQQSMPNRPNYIAFRDNFIGLMYYNSTGNMGVLAGQASQLNAVVDLQDRNTELSYQLLLDSIGDRTRYFSMWNQAVDSYDPDVRIIENHGTEDELPNYCFPLGGVIRTDTLTKVKPKTGQENGWEKDATEFSDKNEIRVGNNFAMEINLNANLWRNFLYSNIALYLPDKLKYSPSNVKISDNPNTYDYMNKRVVAPGLVDCYINLGARWSLDYMDNVNPFNHHRNAGLRYRSMLLGNGRYVPFHIQVPQKFFAIKNLLLLPGSYTYEWNFRKDVNMVLQSSLGNDLRVDGASIKFDSICLYATFFPMAHNTASTLEAMLRNDTNDQSFNDYLSAANMLYPIPANATNVPISIPSRNWAAFRGWAFTRLKTKETPSLGSGYDPYYTYSGSIPYLDGTFYLNHTFKKVAITFDSSVSWPGNDRLLTPNEFEIKRSVDGEGYNVAQCNMTKDWFLVQMLANYNIGYQGFYIPESYKDRMYSFFRNFQPMSRQVVDDTKYKDYQQVGILHQHNNSGFVGYLAPTMREGQAYPANFPYPLIGKTAVDSITQKKFLCDRTLWRIPFSSNFMSMGALTDLGQNLLYANSAHALDMTFEVDPMDEPTLLYVLFEVFDVVRVHRPHRGVIETVYLRTPFSAGNATT
notes: hexon of human adenovirus type 5, whole as in the capsid of the virion; HVR7 segment changed; The whole virion was immobilised; source: 293 cells, virions purified by CsCl ultracentrifugation
B5: hexon of Ad5.4 (Ad5 vector, hexon HVR7 VINTATL), on the virion (natural protein, human adenovirus type 5)
chain: B4 chain with R421N, D423A
notes: as for B4
B6: hexon of Ad5.0 (E1/E3-deleted Ad5 vector with wild-type Ad5 capsid), on the virion (natural protein, human adenovirus type 5)
chain: B4 chain with R421N, D423E
notes: hexon of human adenovirus type 5, whole as in the capsid of the virion; HVR7 segment VINTETL; The whole virion was immobilised; The other capsid proteins are not written; also called VINTETL; source: 293 cells, virions purified by CsCl ultracentrifugation

Broadly, the Kd is the free concentration of one partner at which half of the binding sites on the other are occupied at equilibrium, for simple one-to-one binding.

Substitutions are numbered along the chain they refer to.

In the first assay the target is B5. Put plainly: SPR; Biacore T200; about 300 to 5,000 RU of Ad virions immobilised on a CM5 chip, coagulation factors flowed over at four concentrations, 50 uL/min; 10 mM HEPES, 150 mM NaCl, 1 mM CaCl2, 0.5 mM MgCl2, 0.1% BSA, 0.05% polysorbate 20, pH 7.4; global fit to a 1:1 kinetic interaction model, double referencing. Particulars: both partners purified.
B1 returned a Kd of 1.9 nM.
In turn, B2 displayed a Kd of 540 nM.
B3: the Kd turned out to be 36000 nM. This Kd lies about 67-fold higher than the previous one.

The next assay addresses B4. Described as above. To be noted: both partners purified.
Consider B1, for which binding was characterised by a dissociation constant (Kd) of 0.37 nM.
B2 showed a dissociation constant (Kd) of 1620 nM.
The molecule B3 came in with a dissociation constant (Kd) of 420 nM.

For the next assay, the target named is T1, hexon of Ad5.5 (Ad5 vector, hexon HVR7 VINTDTL), on the virion (human adenovirus type 5, UniProt P04133 2-952, VINTETL to VINTDTL (HVR7; position worked out from the printed T425A)).
T1 construct: hexon of human adenovirus type 5, whole as in the capsid of the virion; HVR7 segment changed; The whole virion was immobilised; source: 293 cells, virions purified by CsCl ultracentrifugation
The description is as above. Particulars: both partners purified.
For the molecule B1, binding was characterised by a dissociation constant (Kd) of 2.5 nM.
Same read-out and setting: next, B2: 438 nM; B3: 216 nM.

Another assay has as its target B6. The assay is described as above. Particulars: both partners purified.
In turn, B1 registered a Kd of 0.32 nM. That is a sub-nanomolar value.
The molecule B2 gave an equilibrium dissociation constant (Kd) of 270 nM.
B3 showed a dissociation constant Kd of 2000 nM.

A further assay addresses T2, human prothrombin (coagulation factor II) (human, UniProt P00734 44-622, γ-carboxylated glutamate residues in the Gla domain (positions not given)).
T2 construct: prothrombin (FII), human, plasma-derived; also called Human FII; FII; source: bought: Haematologic Technologies, Inc. (HCP-0010), plasma-derived; dialyzed
The description is as above. To be noted: both partners purified.
Molecule B4 displayed a Kd of 130 nM.
Turning to B5, binding was put at a Kd of 266 nM. Compared with the last molecule, the Kd is about 2-fold higher.
In turn, B6 showed an equilibrium dissociation constant (Kd) of 35 nM.

The record behind these values is paper PMC9536601, “Binding of adenovirus species C hexon to prothrombin and the influence of hexon on vector properties in vitro and in vivo” (PLoS Pathogens, 2022).
